From paper PMC6048764, “Myricetin antagonizes semen-derived enhancer of viral infection (SEVI) formation and influences its infection-enhancing activity” (Retrovirology, 2018)

Target: the molecule itself
Experiment: thioflavin T fluorescence; amyloid fibril formation; peptide 3 mg/ml agitated at 1400 rpm at 37 °C for 48 h, without myricetin

| Protein | binding result |
| --- | --- |
| RLQGGVLVNEILNHMKA (peptide, UniProt P15309 257-273, looked up, source: synthetic peptide) [PAP257–273 Arg273A] | binds |
| DLNALHKTTKSQRHLGGSQQLL (peptide, UniProt P04279 86-107, looked up, source: synthetic peptide (Scilight Biotechnology LLC, Beijing)) [SEM1_(86–107)] | binds |
| DLNALHKATKSKQHLGGSQQLL (peptide, UniProt Q02383 86-107, looked up, source: synthetic peptide (Scilight Biotechnology LLC, Beijing)) [SEM2_(86–107)] | binds |
| RLAGGVLVNEILNHMKR (peptide, UniProt P15309 257-273, looked up, source: synthetic peptide) [PAP257–273 GIn259A] | binds |
| RAQGGVLVNEILNHMKR (peptide, UniProt P15309 257-273, looked up, source: synthetic peptide) [PAP257–273 Leu258A] | binds |
| RLQGGVLVNEIANHMKR (peptide, UniProt P15309 257-273, looked up, source: synthetic peptide) [PAP257–273 Leu268A] | binds |
